For orientation: Kd means the concentration at which binding is half-saturated.

Drawing on patent US20160199445A1, “USE OF ARPIN A NEW INHIBITOR OF THE ARP2/3 COMPLEX FOR THE DIAGNOSIS AND TREATMENT OF DISEASES” (CENTRE NATIONAL DE LA RECHERCHE SCIENTIFIQUE, priority 2013, published 2016), this text covers IC50 (read off the curve) and Kd for one substance.

Assay [1] has as its target Purified Arp2/3 complex. The assay is described as follows: fluorescence anisotropy, competition with labelled ArpinA bound to purified Arp2/3 complex. (In general: In fluorescence polarisation assays a small probe gives low polarisation when free and higher when bound to something large.)
The target of assay [2] is Purified Arp2/3 complex. Kind of assay: fluorescence anisotropy; labelled ArpinA peptide bound to purified Arp2/3 titrated with purified Arpin FL.

In assay [1], “Human full length Arpin (residues 1-226), purified from E. coli, cleaved off GST by TEV protease (from UniProt Q7Z6K5 1-226)” came in with an IC50 (read off the curve) of 300 nM and an equilibrium dissociation constant (Kd) of 205 nM. In assay [2], the Kd is 200 nM.
